Test results reported in the Human Domainome abundance scans (Beltran et al. 2025).
± gives the uncertainty stated by the source.

B1: Intersectin-2, residues 1129 to 1183; numbered along this chain, Q9NZM3 (parent)
chain: VCQVIAMYDYAANNEDELSFSKGQLINVMNKDDPDWWQGEINGVTGLFPSNYVKM

Variants of: B1
Assay: abundance fitness (aPCA) (normalised: wild type 0, dead -1); higher = more abundant; growth selection in yeast, the domain comes from the species named
Conditions: Homo sapiens

For G46Y, which abundance fitness is on record?
Its abundance fitness is -0.807 ± 0.21.

For N13Y, which abundance fitness is on record?
The abundance fitness was -0.141 ± 0.069.

With N14Q as the variant, how does the abundance fitness read?
Its abundance fitness is -0.01 ± 0.056.

For K22G, which abundance fitness is on record?
Its abundance fitness is -0.097 ± 0.039.

Which abundance fitness does the source give for A11K here?
Its abundance fitness is 0.013 ± 0.051.

For S50K, which abundance fitness is on record?
The abundance fitness was -0.074 ± 0.055.

With W36V as the variant, how does the abundance fitness read?
The abundance fitness was -0.052 ± 0.039.

Which abundance fitness does the source give for E40Q here?
Its abundance fitness is -0.114 ± 0.049.

Which abundance fitness does the source give for I5Y here?
Its abundance fitness is -0.062 ± 0.058.

Which abundance fitness does the source give for A6P here?
The abundance fitness was -0.585 ± 0.068.

With K31V as the variant, how does the abundance fitness read?
The abundance fitness was 0.22 ± 0.039.

For K31R, which abundance fitness is on record?
The abundance fitness was -0.061 ± 0.041.

For N13P, which abundance fitness is on record?
The abundance fitness was -0.133 ± 0.055.

With N51C as the variant, how does the abundance fitness read?
The abundance fitness was -0.044 ± 0.058.

Which abundance fitness does the source give for K22S here?
The abundance fitness was -0.084 ± 0.041.

With S21D as the variant, how does the abundance fitness read?
The abundance fitness was -0.021 ± 0.035.

With V44T as the variant, how does the abundance fitness read?
The abundance fitness was -0.052 ± 0.053.

With G46Q as the variant, how does the abundance fitness read?
The abundance fitness was -0.945 ± 0.082.

With I26A as the variant, how does the abundance fitness read?
The abundance fitness was -0.961 ± 0.068.

With N51D as the variant, how does the abundance fitness read?
The abundance fitness was -0.005 ± 0.055.

Which abundance fitness does the source give for K22A here?
The abundance fitness was -0.027 ± 0.036.

For L25W, which abundance fitness is on record?
Its abundance fitness is -0.098 ± 0.032.

With Y52H as the variant, how does the abundance fitness read?
Its abundance fitness is 0.009 ± 0.076.

With A12S as the variant, how does the abundance fitness read?
The abundance fitness was -0.056 ± 0.035.

With S21Q as the variant, how does the abundance fitness read?
The abundance fitness was -0.137 ± 0.062.

For S50P, which abundance fitness is on record?
Its abundance fitness is -0.015 ± 0.031.

With S19E as the variant, how does the abundance fitness read?
The abundance fitness was -0.193 ± 0.06.

With D33H as the variant, how does the abundance fitness read?
Its abundance fitness is 0.103 ± 0.067.

Which abundance fitness does the source give for I5S here?
Its abundance fitness is -0.134 ± 0.036.

Which abundance fitness does the source give for S19Y here?
The abundance fitness was -0.197 ± 0.04.

Which abundance fitness does the source give for F20A here?
The abundance fitness was -0.998 ± 0.11.

Which abundance fitness does the source give for Q3C here?
Its abundance fitness is -0.066 ± 0.062.

For D35H, which abundance fitness is on record?
The abundance fitness was -0.048 ± 0.05.

Which abundance fitness does the source give for E40Y here?
The abundance fitness was -0.176 ± 0.06.

With S50L as the variant, how does the abundance fitness read?
Its abundance fitness is -0.166 ± 0.03.

With D33W as the variant, how does the abundance fitness read?
Its abundance fitness is -0.237 ± 0.049.

For V53E, which abundance fitness is on record?
The abundance fitness was -0.666 ± 0.11.

With D33N as the variant, how does the abundance fitness read?
The abundance fitness was -0.034 ± 0.039.

With C2A as the variant, how does the abundance fitness read?
Its abundance fitness is -0.116 ± 0.028.

With D35W as the variant, how does the abundance fitness read?
The abundance fitness was -0.145 ± 0.045.

For E17K, which abundance fitness is on record?
Its abundance fitness is -0.089 ± 0.042.

For G46M, which abundance fitness is on record?
The abundance fitness was -1.06 ± 0.15.

Which abundance fitness does the source give for D33R here?
The abundance fitness was -0.015 ± 0.028.

Which abundance fitness does the source give for D33E here?
Its abundance fitness is -0.009 ± 0.047.

With D35R as the variant, how does the abundance fitness read?
The abundance fitness was -0.021 ± 0.031.

Which abundance fitness does the source give for V4I here?
The abundance fitness was -0.478 ± 0.042.

For Y10Q, which abundance fitness is on record?
The abundance fitness was -0.505 ± 0.068.

For N27E, which abundance fitness is on record?
The abundance fitness was 0.039 ± 0.054.

For S50T, which abundance fitness is on record?
The abundance fitness was -0.084 ± 0.045.

With V1K as the variant, how does the abundance fitness read?
The abundance fitness was 0.089 ± 0.3.

For G39K, which abundance fitness is on record?
Its abundance fitness is -0.999 ± 0.091.

For C2N, which abundance fitness is on record?
Its abundance fitness is 0.147 ± 0.067.

With K54Y as the variant, how does the abundance fitness read?
The abundance fitness was -0.104 ± 0.026.

With N42M as the variant, how does the abundance fitness read?
The abundance fitness was -0.046 ± 0.045.

With Y10D as the variant, how does the abundance fitness read?
Its abundance fitness is -0.777 ± 0.11.

For Q3V, which abundance fitness is on record?
Its abundance fitness is -0.042 ± 0.052.

With N30A as the variant, how does the abundance fitness read?
Its abundance fitness is -0.002 ± 0.037.

Which abundance fitness does the source give for M7C here?
Its abundance fitness is -0.02 ± 0.055.

For A6D, which abundance fitness is on record?
The abundance fitness was -0.93 ± 0.13.

With K54W as the variant, how does the abundance fitness read?
Its abundance fitness is -0.388 ± 0.12.

With A11T as the variant, how does the abundance fitness read?
Its abundance fitness is -0.041 ± 0.047.

With M55E as the variant, how does the abundance fitness read?
Its abundance fitness is 0.009 ± 0.18.

With D9A as the variant, how does the abundance fitness read?
The abundance fitness was 0.019 ± 0.045.

With N42D as the variant, how does the abundance fitness read?
The abundance fitness was -0.16 ± 0.063.

With I41V as the variant, how does the abundance fitness read?
The abundance fitness was -0.055 ± 0.042.

Which abundance fitness does the source give for F48I here?
Its abundance fitness is -0.085 ± 0.06.

With G46S as the variant, how does the abundance fitness read?
Its abundance fitness is -0.764 ± 0.047.

With G39I as the variant, how does the abundance fitness read?
Its abundance fitness is -0.942 ± 0.14.

Which abundance fitness does the source give for W37A here?
Its abundance fitness is -0.857 ± 0.099.

For N27V, which abundance fitness is on record?
Its abundance fitness is -0.098 ± 0.043.

For K22H, which abundance fitness is on record?
The abundance fitness was -0.146 ± 0.044.

For G46W, which abundance fitness is on record?
The abundance fitness was -0.92 ± 0.083.

For D33G, which abundance fitness is on record?
The abundance fitness was -0.043 ± 0.033.

Which abundance fitness does the source give for L25D here?
The abundance fitness was 0.024 ± 0.065.

For D16P, which abundance fitness is on record?
The abundance fitness was -0.075 ± 0.058.

With K22L as the variant, how does the abundance fitness read?
The abundance fitness was -0.146 ± 0.035.

For Y10G, which abundance fitness is on record?
The abundance fitness was -0.761 ± 0.044.

Which abundance fitness does the source give for E17D here?
Its abundance fitness is -0.16 ± 0.043.

With V53A as the variant, how does the abundance fitness read?
Its abundance fitness is -0.071 ± 0.045.

For G43V, which abundance fitness is on record?
The abundance fitness was -0.765 ± 0.045.

Which abundance fitness does the source give for S19N here?
The abundance fitness was -0.047 ± 0.058.

Which abundance fitness does the source give for Y52W here?
The abundance fitness was -0.139 ± 0.045.

Which abundance fitness does the source give for S50Y here?
Its abundance fitness is -0.128 ± 0.067.

With L25M as the variant, how does the abundance fitness read?
Its abundance fitness is 0.031 ± 0.049.
